Assay results reported in publication PMC11696170.
Where two headings read alike, the source gives them in different places.

Assays:
[1] = molecular target: AuraA, dimethylallyl tryptophan synthase (DMATS) family prenyltransferase (Penicillium solitum HDN11-131)
[2] = molecular target: AuraA, dimethylallyl tryptophan synthase (DMATS) family prenyltransferase (Penicillium solitum HDN11-131); experiment: cryo-EM structure

stoichiometry N [1]: 4
stoichiometry N [2]: 4
Substance: AuraA, dimethylallyl tryptophan synthase (DMATS) family prenyltransferase (enzyme)
